Legend:
[1] = target: T1, recombinant mutant α2-macroglobulin with the native bait region replaced by sequences flanking the human probiglycan BMP-1 cleavage site (b-α2M)
T1 chain: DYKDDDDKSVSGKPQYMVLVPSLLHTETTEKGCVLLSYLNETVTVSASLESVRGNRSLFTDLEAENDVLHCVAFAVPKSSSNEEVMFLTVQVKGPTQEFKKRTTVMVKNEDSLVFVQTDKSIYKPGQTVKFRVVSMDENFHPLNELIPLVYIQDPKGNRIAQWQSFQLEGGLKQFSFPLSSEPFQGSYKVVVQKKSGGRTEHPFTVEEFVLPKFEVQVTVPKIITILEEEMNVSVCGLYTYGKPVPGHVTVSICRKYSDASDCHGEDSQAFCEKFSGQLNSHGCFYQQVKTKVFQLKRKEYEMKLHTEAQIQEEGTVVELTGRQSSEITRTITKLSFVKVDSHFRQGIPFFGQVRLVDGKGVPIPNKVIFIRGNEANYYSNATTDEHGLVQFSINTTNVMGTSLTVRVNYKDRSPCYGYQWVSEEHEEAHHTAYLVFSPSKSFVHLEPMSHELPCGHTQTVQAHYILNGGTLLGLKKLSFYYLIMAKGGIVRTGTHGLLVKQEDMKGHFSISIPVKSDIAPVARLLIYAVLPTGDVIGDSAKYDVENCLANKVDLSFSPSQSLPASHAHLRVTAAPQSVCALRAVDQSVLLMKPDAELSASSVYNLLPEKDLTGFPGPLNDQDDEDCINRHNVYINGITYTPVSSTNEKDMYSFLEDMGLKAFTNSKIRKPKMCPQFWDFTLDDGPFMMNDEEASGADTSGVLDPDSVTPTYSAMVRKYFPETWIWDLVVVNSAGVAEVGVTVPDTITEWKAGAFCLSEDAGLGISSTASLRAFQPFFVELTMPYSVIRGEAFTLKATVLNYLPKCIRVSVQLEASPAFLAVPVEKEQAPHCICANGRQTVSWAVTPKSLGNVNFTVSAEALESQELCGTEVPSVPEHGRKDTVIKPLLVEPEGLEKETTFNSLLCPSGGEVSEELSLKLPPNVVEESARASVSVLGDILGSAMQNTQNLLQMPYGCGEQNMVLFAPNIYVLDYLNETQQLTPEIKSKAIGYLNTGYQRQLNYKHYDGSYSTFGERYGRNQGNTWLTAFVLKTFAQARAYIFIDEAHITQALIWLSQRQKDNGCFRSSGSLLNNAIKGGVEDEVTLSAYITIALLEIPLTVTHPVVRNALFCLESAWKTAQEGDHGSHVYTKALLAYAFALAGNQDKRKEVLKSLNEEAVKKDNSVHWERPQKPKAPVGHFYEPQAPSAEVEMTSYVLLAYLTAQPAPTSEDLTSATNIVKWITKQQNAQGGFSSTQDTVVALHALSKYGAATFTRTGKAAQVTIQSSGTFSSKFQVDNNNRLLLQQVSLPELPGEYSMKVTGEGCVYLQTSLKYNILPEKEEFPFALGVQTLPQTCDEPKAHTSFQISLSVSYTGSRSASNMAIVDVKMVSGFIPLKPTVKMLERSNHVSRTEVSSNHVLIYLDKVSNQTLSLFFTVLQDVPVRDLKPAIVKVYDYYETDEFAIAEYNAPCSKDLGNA

[2] = target: T2, methylamine-treated human α2-macroglobulin
T2 chain: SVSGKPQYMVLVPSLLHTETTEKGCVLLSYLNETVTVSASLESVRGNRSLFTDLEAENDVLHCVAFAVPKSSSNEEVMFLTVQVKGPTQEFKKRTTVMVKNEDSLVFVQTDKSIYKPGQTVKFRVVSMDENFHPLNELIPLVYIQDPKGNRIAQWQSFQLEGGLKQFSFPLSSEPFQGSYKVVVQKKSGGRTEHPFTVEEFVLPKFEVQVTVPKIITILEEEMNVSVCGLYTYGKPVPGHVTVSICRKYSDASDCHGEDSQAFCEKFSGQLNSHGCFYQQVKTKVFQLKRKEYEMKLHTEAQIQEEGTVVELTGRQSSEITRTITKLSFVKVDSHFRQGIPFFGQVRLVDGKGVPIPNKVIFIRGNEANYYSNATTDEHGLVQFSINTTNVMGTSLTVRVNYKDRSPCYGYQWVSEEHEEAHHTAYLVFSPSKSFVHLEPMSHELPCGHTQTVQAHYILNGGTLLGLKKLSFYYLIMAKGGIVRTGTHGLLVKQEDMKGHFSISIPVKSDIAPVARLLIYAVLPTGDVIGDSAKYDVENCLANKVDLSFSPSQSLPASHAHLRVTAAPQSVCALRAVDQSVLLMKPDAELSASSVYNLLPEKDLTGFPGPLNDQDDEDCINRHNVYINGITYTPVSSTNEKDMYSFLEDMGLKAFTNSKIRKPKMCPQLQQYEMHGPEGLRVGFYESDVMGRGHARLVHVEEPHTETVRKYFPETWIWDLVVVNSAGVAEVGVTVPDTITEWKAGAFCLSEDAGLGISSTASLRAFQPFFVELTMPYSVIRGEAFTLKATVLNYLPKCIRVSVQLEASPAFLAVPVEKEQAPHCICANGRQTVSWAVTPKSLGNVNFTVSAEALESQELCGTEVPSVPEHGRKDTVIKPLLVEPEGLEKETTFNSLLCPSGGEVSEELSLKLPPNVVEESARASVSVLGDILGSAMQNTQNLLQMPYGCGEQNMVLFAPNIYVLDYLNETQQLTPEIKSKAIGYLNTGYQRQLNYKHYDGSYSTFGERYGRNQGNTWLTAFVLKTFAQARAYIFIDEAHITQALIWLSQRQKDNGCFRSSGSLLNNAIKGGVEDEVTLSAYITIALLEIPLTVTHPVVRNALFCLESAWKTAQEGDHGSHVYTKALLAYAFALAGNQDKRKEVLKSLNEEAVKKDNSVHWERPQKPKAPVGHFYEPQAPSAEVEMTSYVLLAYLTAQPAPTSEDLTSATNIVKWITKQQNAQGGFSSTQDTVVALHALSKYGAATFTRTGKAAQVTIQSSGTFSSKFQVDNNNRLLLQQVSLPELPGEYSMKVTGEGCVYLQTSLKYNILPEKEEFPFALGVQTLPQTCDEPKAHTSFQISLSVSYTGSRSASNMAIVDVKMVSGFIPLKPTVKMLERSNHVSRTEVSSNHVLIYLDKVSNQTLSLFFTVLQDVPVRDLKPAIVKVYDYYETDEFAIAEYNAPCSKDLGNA

[3] = target: T3, recombinant wild type α2-macroglobulin (FLAG-tagged); assay: 2 hour co-incubation of 40 nM 35S-BMP-1 with 40 nM α2M, SDS-PAGE autofluorogram
T3 chain: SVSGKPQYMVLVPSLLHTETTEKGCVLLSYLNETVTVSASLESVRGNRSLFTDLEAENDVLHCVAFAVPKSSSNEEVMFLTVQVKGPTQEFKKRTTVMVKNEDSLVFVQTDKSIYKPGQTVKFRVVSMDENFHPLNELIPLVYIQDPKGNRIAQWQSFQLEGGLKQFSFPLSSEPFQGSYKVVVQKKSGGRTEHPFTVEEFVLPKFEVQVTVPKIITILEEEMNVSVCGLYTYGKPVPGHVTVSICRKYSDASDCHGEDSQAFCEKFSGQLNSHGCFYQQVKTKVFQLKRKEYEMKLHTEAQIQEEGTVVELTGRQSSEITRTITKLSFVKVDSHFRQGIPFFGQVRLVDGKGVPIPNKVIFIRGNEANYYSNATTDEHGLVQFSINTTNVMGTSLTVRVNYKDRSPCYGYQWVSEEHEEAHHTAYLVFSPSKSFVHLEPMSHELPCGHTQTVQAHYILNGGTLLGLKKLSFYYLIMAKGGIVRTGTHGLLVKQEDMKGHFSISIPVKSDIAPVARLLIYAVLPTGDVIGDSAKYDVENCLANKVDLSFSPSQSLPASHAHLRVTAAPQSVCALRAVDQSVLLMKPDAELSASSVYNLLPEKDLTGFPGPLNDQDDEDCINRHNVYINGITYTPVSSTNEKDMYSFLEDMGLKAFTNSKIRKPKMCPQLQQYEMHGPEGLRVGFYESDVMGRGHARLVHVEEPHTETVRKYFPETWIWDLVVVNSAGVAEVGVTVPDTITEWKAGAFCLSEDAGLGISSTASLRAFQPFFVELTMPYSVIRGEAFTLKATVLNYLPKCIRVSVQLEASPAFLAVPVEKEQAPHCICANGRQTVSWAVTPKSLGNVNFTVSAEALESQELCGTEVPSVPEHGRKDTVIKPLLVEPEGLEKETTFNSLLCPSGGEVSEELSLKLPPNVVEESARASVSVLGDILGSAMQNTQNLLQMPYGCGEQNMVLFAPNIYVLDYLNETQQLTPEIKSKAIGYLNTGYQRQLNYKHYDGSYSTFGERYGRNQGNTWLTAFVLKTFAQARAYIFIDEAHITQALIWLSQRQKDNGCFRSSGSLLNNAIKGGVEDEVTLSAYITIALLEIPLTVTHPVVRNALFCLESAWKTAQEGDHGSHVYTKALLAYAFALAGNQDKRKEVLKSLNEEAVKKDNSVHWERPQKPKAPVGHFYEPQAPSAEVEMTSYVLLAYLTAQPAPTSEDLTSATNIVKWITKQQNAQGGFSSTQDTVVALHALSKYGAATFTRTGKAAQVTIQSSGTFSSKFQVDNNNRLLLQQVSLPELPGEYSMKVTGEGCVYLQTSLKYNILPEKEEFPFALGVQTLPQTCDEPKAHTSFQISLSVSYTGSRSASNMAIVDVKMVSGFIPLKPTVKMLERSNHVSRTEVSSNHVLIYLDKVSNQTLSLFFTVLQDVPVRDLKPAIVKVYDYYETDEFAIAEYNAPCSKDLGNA

[4] = target: T4, human α2-macroglobulin from plasma (Sigma-Aldrich); assay: as above
T4 chain: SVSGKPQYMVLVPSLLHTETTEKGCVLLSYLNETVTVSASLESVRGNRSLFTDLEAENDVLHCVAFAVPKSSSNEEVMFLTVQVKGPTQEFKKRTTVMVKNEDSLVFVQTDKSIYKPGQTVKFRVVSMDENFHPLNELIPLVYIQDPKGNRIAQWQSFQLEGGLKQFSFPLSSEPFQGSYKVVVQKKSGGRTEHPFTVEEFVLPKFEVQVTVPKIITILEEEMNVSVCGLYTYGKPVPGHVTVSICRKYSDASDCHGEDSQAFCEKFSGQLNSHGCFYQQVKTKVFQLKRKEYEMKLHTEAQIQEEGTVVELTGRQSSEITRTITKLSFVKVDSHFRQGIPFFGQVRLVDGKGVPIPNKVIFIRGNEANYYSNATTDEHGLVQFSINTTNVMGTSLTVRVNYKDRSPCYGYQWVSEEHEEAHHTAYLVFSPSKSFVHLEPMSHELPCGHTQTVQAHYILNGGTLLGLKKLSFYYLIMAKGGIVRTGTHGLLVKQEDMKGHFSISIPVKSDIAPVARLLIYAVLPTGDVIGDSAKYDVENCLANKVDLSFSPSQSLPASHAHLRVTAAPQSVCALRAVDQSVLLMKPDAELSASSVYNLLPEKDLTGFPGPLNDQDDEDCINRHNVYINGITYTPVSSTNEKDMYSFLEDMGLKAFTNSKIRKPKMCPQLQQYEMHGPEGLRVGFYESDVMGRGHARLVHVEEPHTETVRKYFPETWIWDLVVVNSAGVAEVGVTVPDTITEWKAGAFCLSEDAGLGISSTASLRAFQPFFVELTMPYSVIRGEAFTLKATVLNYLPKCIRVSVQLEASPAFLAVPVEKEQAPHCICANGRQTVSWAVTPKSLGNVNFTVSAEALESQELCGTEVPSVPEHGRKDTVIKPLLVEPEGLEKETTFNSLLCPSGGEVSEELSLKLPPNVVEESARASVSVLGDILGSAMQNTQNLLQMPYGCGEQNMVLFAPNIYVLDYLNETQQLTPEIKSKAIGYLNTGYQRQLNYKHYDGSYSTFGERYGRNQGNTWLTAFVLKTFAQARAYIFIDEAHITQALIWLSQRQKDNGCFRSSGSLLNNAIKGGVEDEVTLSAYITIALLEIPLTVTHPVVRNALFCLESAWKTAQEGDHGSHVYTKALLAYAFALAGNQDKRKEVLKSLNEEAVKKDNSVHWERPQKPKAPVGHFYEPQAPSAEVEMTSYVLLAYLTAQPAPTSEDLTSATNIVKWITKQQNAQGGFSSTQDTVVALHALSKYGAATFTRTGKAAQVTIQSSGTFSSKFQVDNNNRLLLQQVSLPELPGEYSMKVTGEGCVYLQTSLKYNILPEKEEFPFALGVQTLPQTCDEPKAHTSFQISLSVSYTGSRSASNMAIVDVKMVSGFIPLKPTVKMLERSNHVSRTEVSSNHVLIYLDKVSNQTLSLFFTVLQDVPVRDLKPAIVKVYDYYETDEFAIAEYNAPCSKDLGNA

[5] = target: T1, recombinant mutant α2-macroglobulin …; assay: as above

B1: Flag-tagged recombinant bone morphogenetic protein-1 (BMP-1) (protein)
chain: AATSRPERVWPDGVIPFVIGGNFTGSQRAVFRQAMRHWEKHTCVTFLERTDEDSYIVFTYRPCGCCSYVGRRGGGPQAISIGKNCDKFGIVVHELGHVVGFWHEHTRPDRDRHVSIVRENIQPGQEYNFLKMEPQEVESLGETYDFDSIMHYARNTFSRGIFLDTIVPKYEVNGVKPPIGQRTRLSKGDIAQARKLYKCPACGETLQDSTGNFSSPEYPNGYSAHMHCVWRISVTPGEKIILNFTSLDLYRSRLCWYDYVEVRDGFWRKAPLRGRFCGSKLPEPIVSTDSRLWVEFRSSSNWVGKGFFAVYEAICGGDVKKDYGHIQSPNYPDDYRPSKVCIWRIQVSEGFHVGLTFQSFEIERHDSCAYDYLEVRDGHSESSTLIGRYCGYEKPDDIKSTSSRLWLKFVSDGSINKAGFAVNFFKEVDECSRPNRGGCEQRCLNTLGSYKCSCDPGYELAPDKRRCEAACGGFLTKLNGSITSPGWPKEYPPNKNCIWQLVAPTQYRISLQFDFFETEGNDVCKYDFVEVRSGLTADSKLHGKFCGSEKPEVITSQYNNMRVEFKSDNTVSKKGFKAHFFSEKRPALQPPRGRPHQLKFRVQKRNRTPQ
cleavage of α2M by BMP-1 (Western blot, time course) [1]: b-α2M is cleaved by BMP-1 more readily than recombinant wild-type α2M (rα2M)
cleavage of α2M by BMP-1 (SDS-PAGE) [2]: BMP-1 was unable to cleave methylamine-treated α2M
percent of BMP-1 incorporated into complexes [3]: 12% of sample
percent of BMP-1 incorporated into complexes [4]: 28% of sample
percent of BMP-1 incorporated into complexes [5]: 42% of sample

— US20080085863A1 (WISCONSIN ALUMNI RESEARCH FOUNDATION, published 2008)
